Results published in patent US20050234225A1 (Eli Lilly, published 2005).
Positions count from the first letter of the chain named.

Tests used:
cell-surface KDR = cell-surface KDR (human, UniProt P35968 20-1356); assay: cell-based or functional assay
[1] = biological target: T1, KDR-alkaline phosphatase (AP) soluble fusion protein (human, UniProt P35968 20-764); assay: BIAcore SPR, KDR immobilized
T1 construct: Expressed in NIH 3T3 cells as in Lu et al. 2000; also called KDR-AP; full length KDR-AP; not shown: alkaline phosphatase (AP) fusion partner
Description: The binding kinetics of soluble Fab proteins to KDR were measured by surface plasmon resonance using a BIAcore biosensor (Pharmacia Biosensor). KDR-AP fusion protein was immobilized onto a sensor chip and soluble Fab proteins were injected at concentrations ranging from 1.5 nM to 100 nM. Sensorgrams were obtained at each concentration and were evaluated using a program, BIA Evaluation 2.0, to determine the rate constants kon and koff. Kd was calculated from the ratio of rate constants koff/kon.
Antibody affinity or avidity was determined by BIAcore analysis, as above. The binding kinetics, i.e., the association rate constant (kon) and the dissociation rate constant (koff), of the anti-KDR antibodies were measured and the dissociation constant, Kd, was calculated (Table 4).

[2] = biological target: T1, KDR-alkaline phosphatase (AP) soluble …; assay: direct binding ELISA: Fab on KDR-coated plate, detected with anti-human Fab-HRP, A450
Description: (§1) In a direct binding assay, various amounts of soluble Fab proteins were added to KDR-coated 96-well Maxi-sorp microtiter plates and incubated at RT for 1 h, after which the plates were washed 3 times with PBST. The plates were then incubated at RT for 1 h with 100 μl of a rabbit anti-human Fab antibody-HRP conjugate (Jackson ImunoResearch Laboratory Inc., West Grove, Pa.). The plates were washed and developed following the procedure described above for the phage ELISA. In a competitive KDR/VEGF blocking assay, various amounts of Fab proteins were mixed with a fixed amount of KDR-AP (100 ng) and incubated at RT for 1 h. The mixtures were then transferred to 96-well microtiter plates precoated with VEGF₁₆₅ (200 ng/well) and incubated at RT for an additional 2 h, after which the plates were washed 5 times and the substrate for AP (p-nitrophenyl phosphate, Sigma) was added. Absorbance at 405 nm was measured to quantify the bound KDR-AP molecules (8).
(§2) Clone D2C6 and D2H2 are more efficient binders, followed by clone D1H4 and D1F7. All four Fabs also block KDR binding to immobilized VEGF (FIG. 2B). […] Only clone D1F7 blocks VEGF from binding to Flk-1 (FIG. 2C), with an IC₅₀ of approximately 15 nM.

[3] = biological target: T1, KDR-alkaline phosphatase (AP) soluble …; assay: competitive blocking ELISA: Fab pre-incubated with KDR-AP, then binding of KDR-AP to immobilised VEGF165, A405
Description: FIG. 2 depicts binding to KDR, blocking of KDR/VEGF interaction and blocking of Flk-1/VEGF interaction by human anti-KDR Fab fragments. FIG. 2A: Dose-dependent binding of human anti-KDR Fab to immobilized KDR. FIG. 2B: Inhibition of KDR binding to immobilized VEGF by anti-KDR Fab. FIG. 2C: Inhibition of Flk-1 binding to immobilized VEGF by anti-KDR Fab. Various amounts of Fab proteins were incubated with a fixed amount of KDR-AP (2B) or Flk-1-AP (2C) in solution at RT for 1 h.
as §1, §2

[4] = biological target: T2, Flk-1-AP soluble fusion protein (murine, UniProt P35918 20-762); assay: competitive blocking ELISA: Fab pre-incubated with Flk-1-AP, then binding of Flk-1-AP to immobilised VEGF165, A405
T2 construct: Soluble fusion protein from NIH 3T3 cells; also called fetal liver kinase 1; not shown: alkaline phosphatase (AP) fusion partner

[5] = biological target: T1, KDR-alkaline phosphatase (AP) soluble …; assay: BIAcore SPR, KDR immobilized; remark: listed apart in the source
[6] = biological target: T1, KDR-alkaline phosphatase (AP) soluble …; assay: direct binding ELISA: antibody on KDR-coated plate, detected with anti-human IgG Fc-HRP, A450
Description: (§3) FIG. 6 depicts binding to KDR and blocking of KDR/VEGF interaction by human anti-KDR antibodies. FIG. 6A: Dose-dependent binding of anti-KDR to immobilized KDR. Various amounts of antibodies were incubated at RT for 1 h in 96-well plates coated with KDR FIG. 6B: Inhibition of binding of KDR to immobilized VEGF by human anti-KDR antibodies. Various amounts of the antibodies were incubated with a fixed amount of KDR-AP in solution at RT for 1 hr.
Anti-KDR antibodies were assessed for KDR binding and blocking of VEGF binding. In the direct binding assay, various amounts of antibodies were added to KDR-coated 96-well Maxi-sorp microtiter plates (Nunc, Roskilde, Denmark) and incubated at room temperature (RT) for 1 h, after which the plates were washed 3 times with PBS containing 0.1% Tween-20. The plates were then incubated at RT for 1 h with 100 μl of a rabbit anti-human IgG Fc-HRP conjugate (Jackson ImmunoResearch Laboratory Inc., West Grove, Pa.). The plates were washed and developed as above.

[7] = biological target: T1, KDR-alkaline phosphatase (AP) soluble …; assay: competitive blocking ELISA: antibody pre-incubated with KDR-AP, then binding of KDR-AP to immobilised VEGF165, A405
Description: as §3
The efficacy of the anti-KDR antibodies for blocking KDR from binding to VEGF was measured with a competition assay. Various amounts of antibodies were mixed with a fixed amount of KDR-AP (100 ng) and incubated at RT for 1 h. The mixtures were then transferred to 96-well microtiter plates precoated with VEGF₁₆₅ (200 ng/well) and incubated at RT for an additional 2 h, after which the plates were washed 5 times and the substrate for AP (p-nitrophenyl phosphate, Sigma) was added, followed by reading the absorbance at 405 nm to quantify the bound KDR-AP molecules. […] The IC₅₀ is approximately 0.8 to 1.0 nM for all three antibodies.

T2 sequence (P35918 20-762): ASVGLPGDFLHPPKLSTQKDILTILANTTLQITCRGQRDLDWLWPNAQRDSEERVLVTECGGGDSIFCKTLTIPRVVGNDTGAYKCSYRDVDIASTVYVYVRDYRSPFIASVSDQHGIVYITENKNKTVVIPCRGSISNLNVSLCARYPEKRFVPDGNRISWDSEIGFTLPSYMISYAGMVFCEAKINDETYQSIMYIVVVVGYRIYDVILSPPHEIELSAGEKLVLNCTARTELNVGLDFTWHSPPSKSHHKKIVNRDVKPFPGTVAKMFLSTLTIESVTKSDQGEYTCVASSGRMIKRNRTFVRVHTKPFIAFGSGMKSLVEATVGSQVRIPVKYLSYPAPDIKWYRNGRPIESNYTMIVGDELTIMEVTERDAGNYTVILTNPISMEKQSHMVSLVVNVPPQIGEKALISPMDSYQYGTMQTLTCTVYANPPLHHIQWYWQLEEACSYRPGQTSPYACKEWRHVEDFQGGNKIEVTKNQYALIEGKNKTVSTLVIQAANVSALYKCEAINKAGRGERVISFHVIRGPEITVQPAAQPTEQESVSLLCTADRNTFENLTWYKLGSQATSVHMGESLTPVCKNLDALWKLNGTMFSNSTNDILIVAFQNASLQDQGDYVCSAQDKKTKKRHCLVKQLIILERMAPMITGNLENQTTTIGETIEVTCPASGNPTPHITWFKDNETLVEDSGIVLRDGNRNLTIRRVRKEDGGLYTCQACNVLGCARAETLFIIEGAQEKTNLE
Sequence of cell-surface KDR (P35968 20-1356): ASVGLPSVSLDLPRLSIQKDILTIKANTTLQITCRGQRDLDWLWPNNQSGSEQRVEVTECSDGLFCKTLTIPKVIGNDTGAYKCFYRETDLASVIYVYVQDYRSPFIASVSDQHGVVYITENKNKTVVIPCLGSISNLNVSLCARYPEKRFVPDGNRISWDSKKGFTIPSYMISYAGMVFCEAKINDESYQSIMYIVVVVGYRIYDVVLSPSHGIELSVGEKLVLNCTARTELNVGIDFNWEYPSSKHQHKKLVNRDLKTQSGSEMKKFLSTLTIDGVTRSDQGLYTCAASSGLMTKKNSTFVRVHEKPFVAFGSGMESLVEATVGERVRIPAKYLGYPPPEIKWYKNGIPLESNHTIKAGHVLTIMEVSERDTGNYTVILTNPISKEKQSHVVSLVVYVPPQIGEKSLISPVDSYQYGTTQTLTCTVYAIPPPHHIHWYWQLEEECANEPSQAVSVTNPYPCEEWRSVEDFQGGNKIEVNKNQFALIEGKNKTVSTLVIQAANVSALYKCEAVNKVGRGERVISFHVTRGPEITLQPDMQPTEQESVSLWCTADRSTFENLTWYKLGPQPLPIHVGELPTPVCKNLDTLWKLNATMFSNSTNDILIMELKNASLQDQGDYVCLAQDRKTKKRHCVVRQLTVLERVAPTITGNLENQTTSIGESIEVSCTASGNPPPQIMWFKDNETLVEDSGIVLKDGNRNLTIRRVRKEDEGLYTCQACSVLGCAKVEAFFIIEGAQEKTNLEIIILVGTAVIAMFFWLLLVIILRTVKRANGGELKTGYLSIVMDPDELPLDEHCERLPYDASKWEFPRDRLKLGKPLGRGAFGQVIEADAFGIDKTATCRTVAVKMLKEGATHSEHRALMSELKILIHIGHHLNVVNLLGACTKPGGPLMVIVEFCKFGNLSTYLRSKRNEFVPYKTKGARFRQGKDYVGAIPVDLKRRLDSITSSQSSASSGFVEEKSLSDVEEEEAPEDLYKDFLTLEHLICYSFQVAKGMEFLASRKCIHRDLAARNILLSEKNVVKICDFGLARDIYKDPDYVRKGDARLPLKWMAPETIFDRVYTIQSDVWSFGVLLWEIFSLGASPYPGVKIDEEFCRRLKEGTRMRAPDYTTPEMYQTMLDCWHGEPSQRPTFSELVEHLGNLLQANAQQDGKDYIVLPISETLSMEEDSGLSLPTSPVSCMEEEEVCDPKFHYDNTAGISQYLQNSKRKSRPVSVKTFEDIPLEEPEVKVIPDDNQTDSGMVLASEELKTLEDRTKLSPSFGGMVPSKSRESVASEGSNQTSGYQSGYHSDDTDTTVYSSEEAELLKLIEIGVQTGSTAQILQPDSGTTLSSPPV
T1 sequence (P35968 20-764): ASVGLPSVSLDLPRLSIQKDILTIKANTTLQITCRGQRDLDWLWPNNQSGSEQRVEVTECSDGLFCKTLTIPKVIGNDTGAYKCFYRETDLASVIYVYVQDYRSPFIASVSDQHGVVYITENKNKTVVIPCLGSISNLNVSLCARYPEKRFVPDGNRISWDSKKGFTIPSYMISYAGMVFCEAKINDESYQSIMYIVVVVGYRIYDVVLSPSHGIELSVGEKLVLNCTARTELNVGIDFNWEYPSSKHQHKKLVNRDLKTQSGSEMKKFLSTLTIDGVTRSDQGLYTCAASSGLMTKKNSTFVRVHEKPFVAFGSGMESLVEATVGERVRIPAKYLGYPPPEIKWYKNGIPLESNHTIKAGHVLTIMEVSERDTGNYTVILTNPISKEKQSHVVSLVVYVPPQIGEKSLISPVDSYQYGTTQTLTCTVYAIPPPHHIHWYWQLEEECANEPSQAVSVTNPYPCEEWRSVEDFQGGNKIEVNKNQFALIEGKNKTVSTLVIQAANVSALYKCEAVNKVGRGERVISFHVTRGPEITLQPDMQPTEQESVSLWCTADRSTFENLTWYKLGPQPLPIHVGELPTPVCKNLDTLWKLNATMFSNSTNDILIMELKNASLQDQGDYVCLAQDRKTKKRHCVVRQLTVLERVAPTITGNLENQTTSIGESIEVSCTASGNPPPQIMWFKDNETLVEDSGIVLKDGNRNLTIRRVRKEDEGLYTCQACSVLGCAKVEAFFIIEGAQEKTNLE

B1: D1F7 Fab (Fab, V domains shown)
VH: EVQLVQSGAEVKKPGASVKVSCKASGGTFSSYAISWVRQAPGQGLEWMGGIIPIFGTANYAQKFQGRVTFTADKSTSTAYMELRSLRSDDTAVYYCARGYDYYDSSGVASPFDYWGQGTLVTVSS
VL: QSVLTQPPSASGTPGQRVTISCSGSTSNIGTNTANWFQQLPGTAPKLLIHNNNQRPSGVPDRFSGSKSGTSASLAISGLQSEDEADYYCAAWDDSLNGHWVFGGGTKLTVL
B1 was tested, and the “EC50 of inhibition of VEGF-stimulated [3H]-TdR incorporation in HUVEC” value (“EC50 of inhibition of VEGF-stimulated” for short) (cell-surface KDR) was roughly 15 nM.

B2: D2C6 Fab (Fab, V domains shown)
VH: EVQLVQSGGGLVKPGGSLRLSCAASGFTFSSYSMNWVRQAPGKGLEWVSSISSSSSYIYYADSVKGRFTISRDNAKNSLYLQMNSLRAEDTAVYYCARVTDAFDIWGQGTMVTVSS
VL: EIVMTQSPATLSLSPGERATLSCRASQSVSSYLAWYQQKPGQAPRLLIYDSSNRATGIPARFSGSGSGTDFTLTISSLEPEDFATYYCLQHNTFPPTFGQGTKVEIK
notes: Soluble human Fab from E. coli HB2151; also called Hu-2C6 Fab; Hu-2C6
B2 was tested, and the “EC50 of inhibition of VEGF-stimulated” value (cell-surface KDR) was roughly 0.5 nM, the Kd [1] was 3.6 nM and the koff [1] was 0.00055 s⁻¹. The kon [1] was 171000 M⁻¹ s⁻¹, the “EC50 (read off the curve)” value [2] was roughly 0.7 nM and the “IC50 (read off the curve)” value [3] was roughly 3 nM. B2: no binding (tested: about 60 nM) [4].

B3: D2H2 Fab (Fab, V domains shown)
VH: B2 VH with N77D
VL: DIQLTQSPSSVSASVGDRVTITCRASQGISSRLAWYQQKPGKAPKLLIYAASSLQTGVPSRFSGSGSGTDFTLTISSLQPEDFATYYCQQANRFPPTFGPGTKVDIK
notes: Soluble human Fab from E. coli HB2151; also called Hu-2H2 Fab
B3 was tested, and the “EC50 of inhibition of VEGF-stimulated” value (cell-surface KDR) was roughly 0.8 nM, the “EC50 (read off the curve)” value [2] was roughly 0.7 nM and the “IC50 (read off the curve)” value [3] was roughly 2 nM. B3: no binding (tested: about 60 nM) [4].

B4: Hu-1121 Fab (Fab, V domains shown)
VH: B2 VH
VL: DIQMTQSPSSVSASIGDRVTITCRASQGIDNWLGWYQQKPGKAPKLLIYDASNLDTGVPSRFSGSGSGTYFTLTISSLQAEDFAVYFCQQAKAFPPTFGGGTKVDIK
notes: see also CLM-00007) with new light chains
In the case of B4, the “fold improvement in Kd against Hu-2C6” value [5] is reported as 33 fold, the Kd [1] is reported as 0.11 nM and the koff [1] is reported as 3.1e-05 s⁻¹. For the same binder, the kon [1] was 296000 M⁻¹ s⁻¹.

B5: IMC-2C6 IgG (antibody, V domains shown)
VH: B2 VH
VL: B2 VL
B5 was tested, and the “fold change of Kd against the monovalent Hu-2C6 Fab” value [5] was roughly 18 fold, the Kd [1] was 0.2 nM and the koff [1] was 4.3e-05 s⁻¹. For the same binder, the kon [1] was 212000 M⁻¹ s⁻¹, the “EC50 (read off the curve)” value [6] was roughly 0.4 nM and the “IC50 (read off the curve)” value [7] was roughly 0.7 nM.

B6: D1H4 Fab (Fab, V domains shown)
VH: B2 VH
VL: QSALTQPASLSGSPGQSITISCAGTTTDLTYYDLVSWYQQHPGQAPKLVIYDGNKRPSGVSNRFSGSKSGNTASLTISGLQAEDEADYYCNSYVSSRFYVFGTGTKVTVL
notes: Soluble human Fab from E. coli HB2151; also called DlH4; Hu-1H4 Fab
For B6, the “EC50 of inhibition of VEGF-stimulated” value (cell-surface KDR) was roughly 0.5 nM, the “EC50 (read off the curve)” value [2] was roughly 1 nM and the “IC50 (read off the curve)” value [3] was roughly 2 nM. B6: no binding (tested: about 60 nM) [4].

B7: IMC-1121 IgG (antibody, V domains shown)
VH: B2 VH
VL: B4 VL
With B7 the “fold increase in overall binding avidity against Hu-1121 Fab” value [5] was roughly 2 fold, the Kd [1] was 0.05 nM and the koff [1] was 2.5e-05 s⁻¹. For the same binder, the kon [1] was 479000 M⁻¹ s⁻¹, the “EC50 (read off the curve)” value [6] was roughly 0.3 nM and the “IC50 (read off the curve)” value [7] was roughly 0.8 nM.
